# Measurements: IntAct's records for PubMed 24981741
# B1: Protein LYRIC (Mus musculus), Q80WJ7 (parent)
# chain: MAARSWQDELAQQAEEGSARLRELLSVGLGFLRTELGLDLGLEPKRYPGWVILVGTGALGLLLLFLLGYGWAAACAGARKKRRSPPRKREEAAPPTPAPDDLAQLKNLRSEEQKKKNRKKLPEKPKPNGRTVEVPEDEVVRNPRSITAKQAPETDKKNEKSKKNKKKSKSDAKAVQNSSRHDGKEVDEGAWETKISHREKRQQRKRDKVLTDSGSLDSTIPGIENIITVTTEQLTTASFPVGSKKNKGDSHLNVQVSNFKSGKGDSTLQVSSRLNENLTVNGGGWSEKSVKLSSQLSEEKWNSVPPASAGKRKTEPSAWTQDTGDTNANGKDWGRNWSDRSIFSGIGSTAEPVSQSTTSDYQWDVSRNQPYIDDEWSGLNGLSSADPSSDWNAPAEEWGNWVDEDRASLLKSQEPISNDQKVSDDDKEKGEGALPTGKSKKKKKKKKKQGEDNSHTQDTEDLEKDTREELPVNTSKARPKQEKACSLKTMSTSDPAEVLIKNSQPVKTLPPAISAEPSITLSKGDSDNSSSQVPPMLQDTDKPKSNAKQNSVPPSQTKSETNWESPKQIKKKKKARRET
# partner: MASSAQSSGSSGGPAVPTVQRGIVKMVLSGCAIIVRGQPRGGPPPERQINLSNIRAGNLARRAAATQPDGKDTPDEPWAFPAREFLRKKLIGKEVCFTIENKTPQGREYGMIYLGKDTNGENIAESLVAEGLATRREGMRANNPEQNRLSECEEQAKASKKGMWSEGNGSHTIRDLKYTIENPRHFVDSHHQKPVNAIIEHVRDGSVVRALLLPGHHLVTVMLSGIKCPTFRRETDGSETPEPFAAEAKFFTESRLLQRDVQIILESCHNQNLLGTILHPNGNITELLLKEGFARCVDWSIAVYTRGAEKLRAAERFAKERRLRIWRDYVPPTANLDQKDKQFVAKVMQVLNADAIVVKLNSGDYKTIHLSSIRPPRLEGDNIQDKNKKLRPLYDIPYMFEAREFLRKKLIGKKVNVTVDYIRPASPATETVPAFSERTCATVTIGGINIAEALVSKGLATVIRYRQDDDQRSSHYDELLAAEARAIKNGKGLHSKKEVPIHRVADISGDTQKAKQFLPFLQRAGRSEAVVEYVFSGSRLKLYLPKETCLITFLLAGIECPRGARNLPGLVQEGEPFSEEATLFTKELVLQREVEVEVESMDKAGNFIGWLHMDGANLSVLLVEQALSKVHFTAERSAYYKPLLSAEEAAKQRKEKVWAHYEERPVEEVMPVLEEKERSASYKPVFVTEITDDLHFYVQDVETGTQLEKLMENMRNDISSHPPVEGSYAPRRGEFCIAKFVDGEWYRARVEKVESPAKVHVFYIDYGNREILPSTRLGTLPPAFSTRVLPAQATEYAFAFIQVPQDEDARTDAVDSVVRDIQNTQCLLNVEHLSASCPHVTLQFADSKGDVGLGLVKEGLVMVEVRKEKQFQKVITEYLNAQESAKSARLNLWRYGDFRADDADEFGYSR
# B2: Protein LYRIC (Homo sapiens), Q86UE4 (parent)
# chain: MAARSWQDELAQQAEEGSARLREMLSVGLGFLRTELGLDLGLEPKRYPGWVILVGTGALGLLLLFLLGYGWAAACAGARKKRRSPPRKREEAAAVPAAAPDDLALLKNLRSEEQKKKNRKKLSEKPKPNGRTVEVAEGEAVRTPQSVTAKQPPEIDKKNEKSKKNKKKSKSDAKAVQNSSRHDGKEVDEGAWETKISHREKRQQRKRDKVLTDSGSLDSTIPGIENTITVTTEQLTTASFPVGSKKNKGDSHLNVQVSNFKSGKGDSTLQVSSGLNENLTVNGGGWNEKSVKLSSQISAGEEKWNSVSPASAGKRKTEPSAWSQDTGDANTNGKDWGRSWSDRSIFSGIGSTAEPVSQSTTSDYQWDVSRNQPYIDDEWSGLNGLSSADPNSDWNAPAEEWGNWVDEERASLLKSQEPIPDDQKVSDDDKEKGEGALPTGKSKKKKKKKKKQGEDNSTAQDTEELEKEIREDLPVNTSKTRPKQEKAFSLKTISTSDPAEVLVKNSQPIKTLPPATSTEPSVILSKSDSDKSSSQVPPILQETDKSKSNTKQNSVPPSQTKSETSWESPKQIKKKKKARRET
# Variants of: B1
# Conditions: with snd1_mouse Snd1, Q78PY7
row,effect of a mutation on the interaction,Variant
1,disrupting interaction strength,D386R;D390R;W391D
2,disrupting interaction strength,W391D

# Further lines, the variant ahead of its results:
row,Variant,effect of a mutation on the interaction
1,W398D,disrupting interaction strength
2,E396R;E397R;W398D,disrupting interaction strength

# Variants of: B2
# Conditions: with snd1_human SND1, Q7KZF4
# Chain of snd1_human SND1, Q7KZF4 (Q7KZF4 whole entry): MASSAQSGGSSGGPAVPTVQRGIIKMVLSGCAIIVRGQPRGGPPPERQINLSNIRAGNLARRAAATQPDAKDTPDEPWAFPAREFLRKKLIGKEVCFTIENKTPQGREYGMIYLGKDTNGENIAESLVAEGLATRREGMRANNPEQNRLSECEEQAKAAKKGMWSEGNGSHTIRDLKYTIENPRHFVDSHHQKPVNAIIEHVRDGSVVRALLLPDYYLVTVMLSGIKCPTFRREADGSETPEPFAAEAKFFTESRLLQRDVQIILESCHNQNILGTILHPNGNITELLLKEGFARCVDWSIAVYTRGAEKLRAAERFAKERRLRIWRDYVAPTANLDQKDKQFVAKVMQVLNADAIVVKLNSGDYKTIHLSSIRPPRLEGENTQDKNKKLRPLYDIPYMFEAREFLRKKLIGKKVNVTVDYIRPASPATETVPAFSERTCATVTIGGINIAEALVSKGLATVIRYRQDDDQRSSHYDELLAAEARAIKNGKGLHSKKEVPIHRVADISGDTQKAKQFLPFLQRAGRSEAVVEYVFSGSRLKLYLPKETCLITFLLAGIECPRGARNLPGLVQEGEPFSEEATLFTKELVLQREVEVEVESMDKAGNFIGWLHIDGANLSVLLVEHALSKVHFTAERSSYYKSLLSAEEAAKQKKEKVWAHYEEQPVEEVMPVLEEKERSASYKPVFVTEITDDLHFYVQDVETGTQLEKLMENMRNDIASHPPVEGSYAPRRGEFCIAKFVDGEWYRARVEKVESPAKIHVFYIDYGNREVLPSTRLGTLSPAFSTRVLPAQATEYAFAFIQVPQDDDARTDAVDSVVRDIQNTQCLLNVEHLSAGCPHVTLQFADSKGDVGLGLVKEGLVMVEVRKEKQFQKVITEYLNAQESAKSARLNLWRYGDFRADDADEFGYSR
row,effect of a mutation on the interaction,Variant
1,disrupting interaction strength,E399R;E400R;W401D
2,decreasing interaction strength,W401D

# Second part, the variant before the results:
row,Variant,effect of a mutation on the interaction
1,D389R;D393R;W394D,disrupting interaction strength
2,W394D,disrupting interaction strength

# Variants of: B2
# Conditions: with snd1_human SND1, Q7KZF4
# Remark: another data set of the same source
row,effect of a mutation on the interaction,Variant
1,disrupting interaction strength,D389R;D393R;W394D
